B1: lac repressor (LacI), functional dimeric form (residues 1-331) (domain or fragment, E. coli, UniProt P03023 1-331, looked up)
chain: MKPVTLYDVAEYAGVSYQTVSRVVNQASHVSAKTREKVEAAMAELNYIPNRVAQQLAGKQSLLIGVATSSLALHAPSQIVAAIKSRADQLGASVVVSMVERSGVEACKAAVHNLLAQRVSGLIINYPLDDQDAIAVEAACTNVPALFLDVSDQTPINSIIFSHEDGTRLGVEHLVALGHQQIALLAGPLSSVSARLRLAGWHKYLTRNQIQPIAEREGDWSAMSGFQQTMQMLNEGIVPTAMLVANDQMALGAMRAITESGLRVGADISVVGYDDTEDSSCYIPPLTTIKQDFRLLGQTSVDRLLQLSQGQAVKGNQLLPVSLVKRKTTLA
B2: ribose repressor (RbsR) (natural protein, E. coli, UniProt P0ACQ0 1-330, looked up)
chain: MATMKDVARLAGVSTSTVSHVINKDRFVSEAITAKVEAAIKELNYAPSALARSLKLNQTHTIGMLITASTNPFYSELVRGVERSCFERGYSLVLCNTEGDEQRMNRNLETLMQKRVDGLLLLCTETHQPSREIMQRYPTVPTVMMDWAPFDGDSDLIQDNSLLGGDLATQYLIDKGHTRIACITGPLDKTPARLRLEGYRAAMKRAGLNIPDGYEVTGDFEFNGGFDAMRQLLSHPLRPQAVFTGNDAMAVGVYQALYQAELQVPQDIAVIGYDDIELASFMTPPLTTIHQPKDELGELAIDVLIHRITQPTLQQQRLQLTPILMERGSA

Biological target: the molecule itself
Test: SEC-MALS

Protein | stoichiometry N
B1 | 2
B2 | 2

From publication doi:10.1101/2025.04.02.646877 (bioRxiv, 2025)
